Our source for the self-cleavage values is the RNAGym collection of RNA variant scans (doi:10.7554/elife.80360).

The labels stand for the following.
B1: Hairpin Ribozyme (parent)
chain: GUCCUCUUUCACGUGCGCGUGAAAGAGAGAAGUGAACCAGAGAAACACACGUUGUGGUAUAUUACCUGGUA

In the data set the parent is B1. Put plainly: self-cleavage, relative activity (ratio to wild type); higher = more cleavage; co-transcriptional.
Regarding GUCCUCUUUCACGUGCGCGUGAAAGAGAGAAGUGAACCAGAGACACACACGUUGUGGUAUAUGACCUGGUA, the self-cleavage was 0.182.

For the variant GUCCUCUUUCACGUGCGCGUGAAAGAGAGAAGUGAACCAGAGUAACACACGAUGUGGUAUAUUACCUGGUA, the self-cleavage came out at 0.229.

GUCCUCUUUCACGUGCGCGUGAAAGAGAGAAGUGAACCAGAGUAACACACGUUGUGGUAUAUUACAUGGUA: the self-cleavage came out at 0.0293.

Consider GUCCUCUUUCACGUGCGCGUGAAAGAGAGAAGUGAACCAGAGUAACACACGUUGUGGUAUAUUACUUGGUA, for which the self-cleavage stood at 0.162.

As to GUCCUCUUUCACGUGCGCGUGAAAGAGAGAAGUGAACCAGAGACACACACGUUGUGGUAUAUUUCCUGGUA, the self-cleavage is 0.155.

As to GUCCUCUUUCACGUGCGCGUGAAAGAGAGAAGUGAACCAGAGACACACACGUUGUGGUAUAUUGCCUGGUA, the self-cleavage was 0.141.

Regarding GUCCUCUUUCACGUGCGCGUGAAAGAGAGAAGUGAACCAGAGACACACACGUUGUGGUAUAUUCCCUGGUA, the self-cleavage was 0.0397.

In the case of GUCCUCUUUCACGUGCGCGUGAAAGAGAGAAGUGAACCAGAGACACACACGUUGUGGUCUAUUACCUGGUA, the self-cleavage amounted to 0.15.

Turning to GUCCUCUUUCACGUGCGCGUGAAAGAGAGAAGUGAACCAGAGACACACACGUUGUGGUGUAUUACCUGGUA, the self-cleavage came to 0.158.

Consider GUCCUCUUUCACGUGCGCGUGAAAGAGAGAAGUGAACCAGAGACACACACGUUGAGGUAUAUUACCUGGUA, for which the self-cleavage turned out to be 0.0312.

With GUCCUCUUUCACGUGCGCGUGAAAGAGAGAAGUGAACCAGAGACACACACGUUGUGGUAUAUUACGUGGUA, the self-cleavage was 0.0764.

Take GUCCUCUUUCACGUGCGCGUGAAAGAGAGAAGUGAACCAGAGACACACACGUUGUGGUAUAUUACUUGGUA: the self-cleavage is 0.107.

In the case of GUCCUCUUUCACGUGCGCGUGAAAGAGAGAAGUGAACCAGAGACACACACGUUGUGGUAUAUUACAUGGUA, the self-cleavage worked out at 0.215.

For GUCCUCUUUCACGUGCGCGUGAAAGAGAGAAGUGAACCAGAGACACACACGUUGUGGUAGAUUACCUGGUA, the self-cleavage stood at 0.0874.

For the variant GUCCUCUUUCACGUGCGCGUGAAAGAGAGAAGUGAACCAGAGUAACACACGUUGUUGUAUAUUACCUGGUA, the self-cleavage amounted to 0.133.

Take GUCCUCUUUCACGUGCGCGUGAAAGAGAGAAGUGAACCAGAGUAACACACGUUGUCGUAUAUUACCUGGUA: the self-cleavage was 0.0883.

As for GUCCUCUUUCACGUGCGCGUGAAAGAGAGAAGUGAACCAGAGACACACACGUUGUGGUAUUUUACCUGGUA, the self-cleavage was found to be 0.212.

Regarding GUCCUCUUUCACGUGCGCGUGAAAGAGAGAAGUGAACCAGAGAUACCCACGUUGUGGUAUAUUACCUGGUA, the self-cleavage amounted to 0.0912.

As to GUCCUCUUUCACGUGCGCGUGAAAGAGAGAAGUGAACCAGAGACACACACGUUGUCGUAUAUUACCUGGUA, the self-cleavage was 0.0706.

GUCCUCUUUCACGUGCGCGUGAAAGAGAGAAGUGAACCAGAGACACGCACGUUGUGGUAUAUUACCUGGUA: the self-cleavage stood at 0.125.

As to GUCCUCUUUCACGUGCGCGUGAAAGAGAGAAGUGAACCAGAGAGACACACGUUGUGAUAUAUUACCUGGUA, the self-cleavage was 0.123.

As for GUCCUCUUUCACGUGCGCGUGAAAGAGAGAAGUGAACCAGAGAGACACACGUUCUGGUAUAUUACCUGGUA, the self-cleavage was 0.119.

In the case of GUCCUCUUUCACGUGCGCGUGAAAGAGAGAAGUGAACCAGAGACACACACGUUGUGGUAUAUUACCUGGUC, the self-cleavage stood at 0.323.

In the case of GUCCUCUUUCACGUGCGCGUGAAAGAGAGAAGUGAACCAGAGACACACACGUUGUGGUAUAUUACCUAGUA, the self-cleavage came to 0.103.

For the variant GUCCUCUUUCACGUGCGCGUGAAAGAGAGAAGUGAACCAGAGAGACACACGUUGGGGUAUAUUACCUGGUA, the self-cleavage was 0.185.

As for GUCCUCUUUCACGUGCGCGUGAAAGAGAGAAGUGAACCAGAGAGACACACGUUGUGGUAUAUUACCUGGGA, the self-cleavage worked out at 0.135.

In the case of GUCCUCUUUCACGUGCGCGUGAAAGAGAGAAGUGAACCAGAGAGACACACGUUGUCGUAUAUUACCUGGUA, the self-cleavage was found to be 0.0768.

With GUCCUCUUUCACGUGCGCGUGAAAGAGAGAAGUGAACCAGAGAGACACACGUUGUAGUAUAUUACCUGGUA, the self-cleavage amounted to 0.191.

In the case of GUCCUCUUUCACGUGCGCGUGAAAGAGAGAAGUGAACCAGAGACACAGACGUUGUGGUAUAUUACCUGGUA, the self-cleavage was determined as 0.151.

For the variant GUCCUCUUUCACGUGCGCGUGAAAGAGAGAAGUGAACCAGAGACACAAACGUUGUGGUAUAUUACCUGGUA, the self-cleavage came to 0.161.

For GUCCUCUUUCACGUGCGCGUGAAAGAGAGAAGUGAACCAGAGACACACACGUUGUGGUAUAAUACCUGGUA, the self-cleavage was 0.156.

Consider GUCCUCUUUCACGUGCGCGUGAAAGAGAGAAGUGAACCAGAGAGACACACGUUGUGGUAUAUCACCUGGUA, for which the self-cleavage came out at 0.21.

For the variant GUCCUCUUUCACGUGCGCGUGAAAGAGAGAAGUGAACCAGAGAGACACACGUUGUGGUAUAUGACCUGGUA, the self-cleavage was found to be 0.239.

In the case of GUCCUCUUUCACGUGCGCGUGAAAGAGAGAAGUGAACCAGAGACACACAGGUUGUGGUAUAUUACCUGGUA, the self-cleavage turned out to be 0.

For GUCCUCUUUCACGUGCGCGUGAAAGAGAGAAGUGAACCAGAGACACACACGUUGUGGUAUAUUACCUGUUA, the self-cleavage is 0.167.

As for GUCCUCUUUCACGUGCGCGUGAAAGAGAGAAGUGAACCAGAGACACACACGUUGUGGUAUAUUACCUGCUA, the self-cleavage amounted to 0.141.

GUCCUCUUUCACGUGCGCGUGAAAGAGAGAAGUGAACCAGAGAGACACAUGUUGUGGUAUAUUACCUGGUA: the self-cleavage worked out at 0.134.

For GUCCUCUUUCACGUGCGCGUGAAAGAGAGAAGUGAACCAGAGAGACACAAGUUGUGGUAUAUUACCUGGUA, the self-cleavage was determined as 0.198.
